Data on one substance can be found in PMC8282004.

The target in this assay is hACE2-K31N/K353H (human) (UniProt Q9BYF1). Description: flow cytometry on cells.

For the substance “recombinant SARS-CoV-2 spike RBD-Fc protein (from UniProt P0DTC2 319-524) (Fc fusion)”, the binding efficiency (percentage of GFP+ cells that bound RBD-Fc) worked out at 7.86%.
